One molecule from PMC2956685, “The 14-3-3ζ Protein Binds to the Cell Adhesion Molecule L1, Promotes L1 Phosphorylation by CKII and Influences L1-Dependent Neurite Outgrowth” (PLoS ONE, 2010) can be followed below.

The experiment deals with His-L1ICD, non-phosphorylated (intracellular domain of L1) (mouse, UniProt P11627 1144-1260). Description: cell-based or functional assay.
Sequence of His-L1ICD, non-phosphorylated (intracellular domain of L1) (P11627 1144-1260): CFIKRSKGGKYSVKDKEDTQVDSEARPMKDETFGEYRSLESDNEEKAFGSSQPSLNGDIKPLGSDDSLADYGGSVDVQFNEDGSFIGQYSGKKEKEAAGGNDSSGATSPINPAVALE

B1: GST-14-3-3ζ (natural protein, UniProt P63104 1-245, looked up)
chain: MDKNELVQKAKLAEQAERYDDMAACMKSVTEQGAELSNEERNLLSVAYKNVVGARRSSWRVVSSIEQKTEGAEKKQQMAREYREKIETELRDICNDVLSLLEKFLIPNASQAESKVFYLKMKGDYYRYLAEVAAGDDKKGIVDQSQQAYQEAFEISKKEMQPTHPIRLGLALNFSVFYYEILNSPEKACSLAKTAFDEAIAELDTLSEESYKDSTLIMQLLRDNLTLWTSDTQGDEAEAGEGGEN
For B1, the “phosphorylation of L1ICD by CKII in vitro (densitometry of the phospho-L1ICD band, 0 to 180 min) after preincubation with GST-14-3-3ζ against GST alone” value is around 3 fold.
